Experimental data: US20040067231A1 (published 2004)

B1: antibody having both a humanized H-chain version “a” and a chimeric L-chain (antibody, V domains shown)
VH: QVQLVESGGGVVQPGRSLRLSCAASGFTFSSYGMSWVRQAPGKGLEWVATISSGGSYTYYPDSVKGRFTISRDNSKNTLYLQMNSLRAEDTAVYYCARQTTMTYFAYWGQGTLVTVSS
VL: QLVLTQSSSASFSLGASAKLTCTLSSQHSTYTIEWYQQQPLKPPKYVMDLKQDGSHSTGDGIPDRFSGSSSGADRYLSISNIQPEDEAMYICGVGDTIKEQFVYVFGGGTKVTVLG
notes: H-chain C-region is human Cγ1
B2: mouse FR1,2/human FR3,4 hybrid antibody with L-chain m/hMBC1Ldλ (antibody, V domains shown)
VH: QVQLVESGGGVVQPGRSLRLSCAASGFTFSSYGMSWVRQAPGKGLEWVATISSGGSYTYYPDSVKGRFTISRDNSKNTLYLQMNSLRAEDTAVYYCARQTTMTYFAYWGQGTLVTVSS
VL: QLVLTQSSSASFSLGASAKLTCTLSSQHSTYTIEWYQQQPLKPPKYVMDLKQDGSHSTGDGIPDRFSGSSSGAERYLTISSLQSEDEADYICGVGDTIKEQFVYVFGGGTKLTVL
notes: H-chain from hMBC1HcDNA/pCOS1 (humanized version a, human Cγ1); L-chain C-region human λ; Expressed in COS-7 cells
B3: humanized #23-57-137-1 antibody having L-chain version “m” (antibody, V domains shown)
VH: QVQLVESGGGVVQPGRSLRLSCAASGFTFSSYGMSWVRQAPGKGLEWVATISSGGSYTYYPDSVKGRFTISRDNSKNTLYLQMNSLRAEDTAVYYCARQTTMTYFAYWGQGTLVTVSS
VL: QLVLTQSPSASASLGASVKLTCTLSSQHSTYTIEWYQQQPEKGPRYLMDLKQDGSHSTGDGIPDRFSGSSSGAERYLTISSLQSEDEADYYCGVGDTIKEQFVYVFGGGTKLTVLG
notes: Humanized H-chain version a with human Cγ1; L-chain with human λ C-region; also called hMBC1HcDNA/pCOS1 and hMBC1Lmλ/pCOS1
B4: humanized #23-57-137-1 antibody having L-chain version “q” (antibody, V domains shown)
VH: QVQLVESGGGVVQPGRSLRLSCAASGFTFSSYGMSWVRQAPGKGLEWVATISSGGSYTYYPDSVKGRFTISRDNSKNTLYLQMNSLRAEDTAVYYCARQTTMTYFAYWGQGTLVTVSS
VL: QLVLTQSPSASASLGASVKLTCTLSSQHSTYTIEWYQQQPEKGPKYLMDLKQDGSHSTGDGIPDRFSGSSSGAERYLTISSLQSEDEADYICGVGDTIKEQFVYVFGGGTKLTVLG
notes: Humanized H-chain version a with human Cγ1; L-chain with human λ C-region; also called humanized antibody L-chain version “q”; hMBC1HcDNA and hMBC1Lqλ
B5: humanized #23-57-137-1 antibody having L-chain version “l” (antibody, V domains shown)
VH: QVQLVESGGGVVQPGRSLRLSCAASGFTFSSYGMSWVRQAPGKGLEWVATISSGGSYTYYPDSVKGRFTISRDNSKNTLYLQMNSLRAEDTAVYYCARQTTMTYFAYWGQGTLVTVSS
VL: QLVLTQSPSASASLGASVKLTCTLSSQHSTYTIEWYQQQPEKGPKYVMDLKQDGSHSTGDGIPDRFSGSSSGAERYLTISSLQSEDEADYYCGVGDTIKEQFVYVFGGGTKLTVLG
notes: Humanized H-chain version a with human Cγ1; L-chain with human λ C-region; also called hMBC1HcDNA/pCOS1 and hMBC1Llλ/pCOS1
B6: humanized #23-57-137-1 antibody having L-chain version “t” (antibody, V domains shown)
VH: QVQLVESGGGVVQPGRSLRLSCAASGFTFSSYGMSWVRQAPGKGLEWVATISSGGSYTYYPDSVKGRFTISRDNSKNTLYLQMNSLRAEDTAVYYCARQTTMTYFAYWGQGTLVTVSS
VL: QLVLTQSPSASASLGASVKLTCTLSSQHSTYTIEWYQQQPEKGPRYVMDLKQDGSHSTGDGIPDRFSGSSSGAERYLTISSLQSEDEADYICGVGDTIKEQFVYVFGGGTKLTVLG
notes: Humanized H-chain version a with human Cγ1; L-chain with human λ C-region; also called hMBC1HcDNA/pCOS1 and hMBC1Ltλ/pCOS1
B7: mouse FR1,2/human FR3,4 hybrid antibody with L-chain m/hMBC1Laλ (antibody, V domains shown)
VH: QVQLVESGGGVVQPGRSLRLSCAASGFTFSSYGMSWVRQAPGKGLEWVATISSGGSYTYYPDSVKGRFTISRDNSKNTLYLQMNSLRAEDTAVYYCARQTTMTYFAYWGQGTLVTVSS
VL: QLVLTQSSSASFSLGASAKLTCTLSSQHSTYTIEWYQQQPLKPPKYVMDLKQDGSHSTGDGIPDRFSGSSSGAERYLTISSLQSEDEADYYCGVGDTIKEQFVYVFGGGTKLTVL
notes: as for B2
B8: humanized #23-57-137-1 antibody having L-chain version “o” (antibody, V domains shown)
VH: QVQLVESGGGVVQPGRSLRLSCAASGFTFSSYGMSWVRQAPGKGLEWVATISSGGSYTYYPDSVKGRFTISRDNSKNTLYLQMNSLRAEDTAVYYCARQTTMTYFAYWGQGTLVTVSS
VL: QLVLTQSPSASASLGASVKLTCTLSSQHSTYTIEWYQQQPEKGPRYVMDLKQDGSHSTGDGIPDRFSGSSSGAERYLTISSLQSEDEADYYCGVGDTIKEQFVYVFGGGTKLTVLG
notes: Humanized H-chain version a with human Cγ1; L-chain with human λ C-region; also called hMBC1HcDNA/pCOS1 and hMBC1Loλ/pCOS1
B9: humanized #23-57-137-1 antibody having L-chain version “j” (antibody, V domains shown)
VH: QVQLVESGGGVVQPGRSLRLSCAASGFTFSSYGMSWVRQAPGKGLEWVATISSGGSYTYYPDSVKGRFTISRDNSKNTLYLQMNSLRAEDTAVYYCARQTTMTYFAYWGQGTLVTVSS
VL: QLVLTQSPSASASLGASVKLTCTLSSQHSTYTIEWYQQQPEKGPKYLMDLKQDGSHSTGDGIPDRFSGSSSGAERYLTISSLQSEDEADYYCGVGDTIKEQFVYVFGGGTKLTVLG
notes: Humanized H-chain version a with human Cγ1; L-chain with human λ C-region (Cλ/pUC19); also called hMBC1HcDNA/pCOS1 and hMBC1Ljλ/pCOS1
B10: human FR1/mouse FR2,3,4 hybrid antibody with L-chain hmmMBC1L(λ) (antibody, V domains shown)
VH: QVQLVESGGGVVQPGRSLRLSCAASGFTFSSYGMSWVRQAPGKGLEWVATISSGGSYTYYPDSVKGRFTISRDNSKNTLYLQMNSLRAEDTAVYYCARQTTMTYFAYWGQGTLVTVSS
VL: QLVLTQSPSASASLGASVKLTCTLSSQHSTYTIEWYQQQPLKPPKYVMDLKQDGSHSTGDGIPDRFSGSSSGADRYLSISNIQPEDEAMYICGVGDTIKEQFVYVFGGGTKVTVL
notes: H-chain from hMBC1HcDNA/pCOS1 (humanized version a, human Cγ1); L-chain C-region human λ; Expressed in COS-7 cells; also called FR1/FR2 hybrid antibody

molecular target: T1, human PTHrP (1-34) (human); assay: ELISA on coated human PTHrP (1-34)
T1 construct: Synthetic peptide (Peninsula; Peptide Research Institute); Coated on the ELISA plate at 1 µg/ml; used in solid phase RIA for the hybridoma screening; also called parathyroid hormone related peptide (1-34)
Protocol: An ELISA plate for determining antigen-binding ability was prepared as follows. Each well of a 96-well ELISA plate (Maxisorp, NUNC) was coated with 100 μl of a coating buffer containing 1 μg/ml of human PTHrP (1-34) and then blocked with 200 μl of a dilution buffer. Subsequently, each well was added with each of the serial dilutions of the COS-7 cell culture supernatant in which each of the hybrid antibodies and humanized antibodies was expressed, or added with each of the serial dilutions of each of the hybrid antibodies and humanized antibodies in a purified form. The plate was incubated at room temperature and washed with PBS-Tween 20. Subsequently, each well was added with 100 μl of alkaline phosphatase-conjugated goat anti-human IgG antibody (TAGO). The plate was incubated at room temperature and washed with PBS-Tween 20. Subsequently, each well was added with 1 mg/ml of a substrate solution (“Sigma 104”, p-nitrophenylphosphoric acid, SIGMA). The solution was measured on its absorbance at 405 nm using Microplate Reader (Bio Rad).

Binding result, binds:
B1, B2, B3, B4, B5, B6, B7, B8, B9, B10
